Reference: patent US20090232762A1, “COMPOSITIONS FOR DELIVERY OF THERAPEUTIC AGENTS” (priority 2008, published 2009)

Key:
Type in all cases: biochemical, S. cerevisiae
[1] = substrate: Nc1nc(=O)[nH]cc1F; test: Enzyme activity of yCD-His (substrate turnover); conditions: other: enzyme yCD-His, 10 uL of 4.52 ug/mL stock; average ±SE; 23.0 °C
Method: (§1) The S. cerevisiae yeast cytosine deaminase (yCD) enzyme was cloned and expressed. The resulting 474 bp gene was subcloned into pET-15b to facilitate purification of the protein via a fused histidine tag and transformed into competent BL21(DE3) cells for protein expression. An estimate of about 25-30 mg of pure yCD-His was collected from a 1-liter culture. Thrombin cleavage of the histidine tag on yCD-His was achieved by incubating the protein for 2 hours at 23° C. in thrombin cleavage buffer. Enzyme activity characteristics for yCD and yCD-His was investigated using both the prodrug 5FC and the enzyme's natural substrate, the DNA base cytosine. Five-FC turnover rates remained within 10^5 M^−1·s^−1 (Table 1) for both proteins (see E. Kievit et al. Cancer Res. 2000, 60:6649-6655). The diffusion controlled limit for extremely efficient enzymes and their substrates in solution is in the range 10^8-10^9 M^−1·s^−1, therefore it was concluded that yCD was a very efficient pretargeting enzyme for catalyzing 5FC to 5FU conversion, especially applicable to GDEPT.

[2] = substrate: Nc1cc[nH]c(=O)n1; test: Enzyme activity of yCD-His (substrate turnover); conditions: other: enzyme yCD-His, 10 uL of 4.52 ug/mL stock; average ±SE; 23.0 °C
Method: as §1

[3] = substrate: Nc1nc(=O)[nH]cc1F; test: Enzyme activity of yCD (His tag cleaved); conditions: other: enzyme yCD, 10 uL of 4.23 ug/mL stock; average ±SE; 23.0 °C
Method: as §1

[4] = substrate: Nc1cc[nH]c(=O)n1; test: Enzyme activity of yCD (His tag cleaved); conditions: other: enzyme yCD, 10 uL of 4.23 ug/mL stock; average ±SE; 23.0 °C
Method: as §1

Protein | Km [1] | Km [2] | Km [3] | Km [4]
yCD-His (Saccharomyces cerevisiae S288C) (protein, The resulting 474 bp gene was subcloned into pET-15b; made in house; host or cells: E. coli BL21(DE3)) MVTGGMASKWDQKGMDIAYEEAALGYKEGGVPIGGCLINNKDGSVLGRGHNMRFQKGSATLHGEISTLENCGRLEGKVYKDTTLYTTLSPCDMCTGAIIMYGIPRCVVGENVNFKSKGEKYLQTRGHEVVVVDDERCKKIMKQFIDERPQDWFEDIGE | 1.0 ± 0.24 mM | 4.04 ± 1.12 mM |  | 
yCD (Saccharomyces cerevisiae S288C) (protein, The resulting 474 bp gene was subcloned into pET-15b; histidine tag (pET-15b) (N, cleaved yes); made in house; host or cells: E. coli BL21(DE3)) MVTGGMASKWDQKGMDIAYEEAALGYKEGGVPIGGCLINNKDGSVLGRGHNMRFQKGSATLHGEISTLENCGRLEGKVYKDTTLYTTLSPCDMCTGAIIMYGIPRCVVGENVNFKSKGEKYLQTRGHEVVVVDDERCKKIMKQFIDERPQDWFEDIGE |  |  | 0.8 ± 0.18 mM | 3.75 ± 0.69 mM
